Source: patent US20150239980A1 (NEOTOPE BOSCIENCES, published 2015)
Blank lines part the entries; values can stand above or below the binder they belong to.

What was measured:
[1] = molecular target: T1, recombinant human IgG1 Fc (R&D systems) (human, UniProt P01857-1 100-330 = IgG part); test: SPR, Biacore T200
T1 construct: domain: Fc; negative control surface; also called hIgG1-Fc

[2] = molecular target: T2, recombinant human laminin 511 (Biolamina) (human, UniProt O15230 36-3695; P07942 22-1786; P11047 34-1609); test: flow cytometry, human MCAM CHO cells, pan-laminin antibody
T2 construct: negative control; also called laminin 10 (α5β1γ1)

binding result [1]: no binding (tested: 5-175 nM)
B1: Recombinant human laminin-α4 (R&D systems) (ligand, UniProt Q16363-2 826-1816, looked up)
chain: QVSMMFDGQSAVEVHSRTSMDDLKAFTSLSLYMKPPVKRPELTETADQFILYLGSKNAKKEYMGLAIKNDNLVYVYNLGTKDVEIPLDSKPVSSWPAYFSIVKIERVGKHGKVFLTVPSLSSTAEEKFIKKGEFSGDDSLLDLDPEDTVFYVGGVPSNFKLPTSLNLPGFVGCLELATLNNDVISLYNFKHIYNMDPSTSVPCARDKLAFTQSRAASYFFDGSGYAVVRDITRRGKFGQVTRFDIEVRTPADNGLILLMVNGSMFFRLEMRNGYLHVFYDFGFSGGPVHLEDTLKKAQINDAKYHEISIIYHNDKKMILVVDRRHVKSMDNEKMKIPFTDIYIGGAPPEILQSRALRAHLPLDINFRGCMKGFQFQKKDFNLLEQTETLGVGYGCPEDSLISRRAYFNGQSFIASIQKISFFDGFEGGFNFRTLQPNGLLFYYASGSDVFSISLDNGTVIMDVKGIKVQSVDKQYNDGLSHFVISSVSPTRYELIVDKSRVGSKNPTKGKIEQTQASEKKFYFGGSPISAQYANFTGCISNAYFTRVDRDVEVEDFQRYTEKVHTSLYECPIESSPLFLLHKKGKNLSKPKASQNKKGGKSKDAPSWDPVALKLPERNTPRNSHCHLSNSPRAIEHAYQYGGTANSRQEFEHLKGDFGAKSQFSIRLRTRSSHGMIFYVSDQEENDFMTLFLAHGRLVYMFNVGHKKLKIRSQEKYNDGLWHDVIFIRERSSGRLVIDGLRVLEESLPPTEATWKIKGPIYLGGVAPGKAVKNVQINSIYSFSGCLSNLQLNGASITSASQTFSVTPCFEGPMETGTYFSTEGGYVVLDESFNIGLKFEIAFEVRPRSSSGTLVHGHSVNGEYLNVHMKNGQVIVKVNNGIRDFSTSVTPKQSLCDGRWHRITVIRDSNVVQLDVDSEVNHVVGPLNPKPIDHREPVFVGGVPESLLTPRLAPSKPFTGCIRHFVIDGHPVSFSKAALVSGAVSINSCPAA
notes: also called laminin α-4 chain

binding result [2]: no binding (tested: 10 µg/ml)
B2: human MCAM (melanoma cell adhesion molecule) expressed on transfected CHO cells (receptor)
chain: VPGEAEQPAPELVEVEVGSTALLKCGLSQSQGNLSHVDWFSVHKEKRTLIFRVRQGQGQSEPGEYEQRLSLQDRGATLALTQVTPQDERIFLCQGKRPRSQEYRIQLRVYKAPEEPNIQVNPLGIPVNSKEPEEVATCVGRNGYPIPQVIWYKNGRPLKEEKNRVHIQSSQTVESSGLYTLQSILKAQLVKEDKDAQFYCELNYRLPSGNHMKESREVTVPVFYPTEKVWLEVEPVGMLKEGDRVEIRCLADGNPPPHFSISKGNPSTREAEEETTNDNGVLVLEPARKEHSGRYECQAWNLDTMISLLSEPQELLVNYVSDVRVSPAAPERQEGSSLTLTCEAESSQDLEFQWLREETDQVLERGPVLQLHDLKREAGGGYRCVASVPSIPGLNRTQLVKLAIFGPPWMAFKERKVWVKENMVLNLSCEASGHPRPTISWNVNGTASEGDQDPQRVLSTLNVLVTPELLETGVECTASNDLGKNTSILFLELVNLTTLTPDSNTTTGLSTSTASPHTRANSTSTERKLPEPESRGVVIVAVIVCILVLAVLGAVLYFLYKKGKLPCRRSGKQEITLPPSRKTELVVEVKSDKLPEEMGLLQGSSGDKRAPGDQGEKYIDLRH
notes: also called hMCAM; CD146
